The values below come from the supplement of paper PMC5998384.

The test system of data set [1] is HeLa Kyoto. Briefly: melting temperature (median over replicates), in situ; higher = more thermally stable.
Data set [2] relates to HeLa Kyoto. Briefly: thermal stability score vs G1/S (z-score of summed log2 fold changes over temperatures); higher = more thermally stable than in G1/S.
For data set [3], the system named is HeLa Kyoto. Briefly: solubility change mitosis vs G1/S (difference of NP-40 vs SDS log2 ratios) (log2 ratio difference); higher = more soluble in mitosis.
The test system of data set [4] is HeLa Kyoto. Briefly: solubility in G1/S (NP-40 vs SDS abundance) (log2 ratio); higher = more soluble. To be noted: cell cycle stage: G1/S.
[5] abbreviates: cell cycle stage: early G1 (4.5 h after nocodazole release).
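Wherever melting temperature (median over replicates), in situ is given: HeLa Kyoto cells synchronized by double thymidine or nocodazole block, proteins quantified by TMT10plex mass spectrometry, three independent biological replicates.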
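Wherever solubility change mitosis vs G1/S (difference of NP-40 vs SDS log2 ratios) is given: synchronized HeLa Kyoto cells (double thymidine block for G1/S, nocodazole release for mitosis), protein amounts in NP-40 versus SDS lysates quantified by mass spectrometry, three biological replicates.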
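Wherever solubility in G1/S (NP-40 vs SDS abundance) is given: HeLa Kyoto cells arrested at G1/S by double thymidine block, proteins quantified by TMT10plex mass spectrometry in mild NP-40 versus SDS extracts, three biological replicates.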
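Wherever thermal stability score vs G1/S (z-score of summed log2 fold changes over temperatures) is given: synchronized HeLa Kyoto cells, proteins quantified by TMT10plex mass spectrometry, three biological replicates, mitosis taken 0.5 h after nocodazole release, G1/S directly after double thymidine block.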

As for “MAATASAGVPATVSEKQEFYQLLKNLINPSCMVRRQAEEIYENIPGLCKTTFLLDAVRNRRAGYEVRQMAAALLRRLLSSGFEEVYPNLPADVQRDVKIELILAVKLETHASMRKKLCDIFAVLARNLIDEDGTNHWPEGLKFLIDSIYSKNVVLWEVALHVFWHFPGIFGTQERHDLDIIKRLLDQCIQDQEHPAIRTLSARAAAAFVLANENNIALFKDFADLLPGILQAVNDSCYQDDDSVLESLVEIADTVPKYLGPYLEDTLQLSLKLCGDSRLSNLQRQLALEVIVTLSETATPMLKKHTNIIAQAVPHILAMMVDLQDDEDWVNADEMEEDDFDSNAVAAESALDRLACGLGGKVVLPMTKEHIMQMLQSPDWKYRHAGLMALSAIGEGCHQQMESILDETVNSVLLFLQDPHPRVRAAACTTLGQMATDFAPNFQKKFHETVIAALLRTMENQGNQRVQSHAASALIIFIEDCPKSLLVLYVDSMVKNLHSVLVIKLQELIRNGTKLALEQLVTTIASVADTIEEKFVPYYDIFMPSLKHIVELAVQKELKLLRGKTIECISHIGLAVGKEKFMQDASNVMQLLLKTQSDLNNMEDDDPQTSYMVSAWARMCKILGKDFQQYLPLVIEPLIKTASAKPDVALLDTQDVENMSDDDGWQFVNLGDQQSFGIKTSGLEAKATACQMLVYYAKELREGFVEYTEQVVKLMVPLLKFYFHDNVRVAAAESMPFLLECARIRGPEYLAQMWQFICDPLIKAIGTEPDTDVLSEIMNSFAKSIEVMGDGCLNDEHLEELGGILKAKLEGHFKNQELRQVKRQEENYDQQVEMSLQDEDECDVYILTKVSDILHSLFSTYKEKILPWFEQLLPLIVNLICSSRPWPDRQWGLCIFDDIIEHCSPTSFKYVEYFRWPMLLNMRDNNPEVRQAAAYGLGVMAQFGGDDYRSLCSEAVPLLVKVIKCANSKTKKNVIATENCISAIGKILKFKPNCVNVDEVLPHWLSWLPLHEDKEEAIQTLSFLCDLIESNHPVVIGPNNSNLPKIISIIAEGKINETINYEDPCAKRLANVVRQVQTSEDLWLECVSQLDDEQQEALQELLNFA [RANBP6]”, the values for the melting temperature in the data set on HeLa Kyoto [1] (cell cycle stage: G1/S) and with HeLa Kyoto [1] (cell cycle stage: mitosis) were 49.9 °C and 51.5 °C, respectively. In addition, the figures for the thermal stability score with HeLa Kyoto [2] (setting [5]) and with HeLa Kyoto [2] (cell cycle stage: mitosis) were 0.799 and 0.825, respectively. The “solubility change mitosis (log2)” value with HeLa Kyoto [3] is -0.132. Also, the “solubility in G1/S (log2)” value in the data set with HeLa Kyoto [4] was -0.0197.

Take “MAATLDLKSKEEKDAELDKRIEALRRKNEALIRRYQEIEEDRKKAELEGVAVTAPRKGRSVEKENVAVESEKNLGPSRRSPGTPRPPGASKGGRTPPQQGGRAGMGRASRSWEGSPGEQPRGGGAGGRGRRGRGRGSPHLSGAGDTSISDRKSKEWEERRRQNIEKMNEEMEKIAEYERNQREGVLEPNPVRNFLDDPRRRSGPLEESERDRREESRRHGRNWGGPDFERVRCGLEHERQGRRAGLGSAGDMTLSMTGRERSEYLRWKQEREKIDQERLQRHRKPTGQWRREWDAEKTDGMFKDGPVPAHEPSHRYDDQAWARPPKPPTFGEFLSQHKAEASSRRRRKSSRPQAKAAPRAYSDHDDRWETKEGAASPAPETPQPTSPETSPKETPMQPPEIPAPAHRPPEDEGEENEGEEDEEWEDISEDEEEEEIEVEEGDEEEPAQDHQAPEAAPTGIPCSEQAHGVPFSPEEPLLEPQAPGTPSSPFSPPSGHQPVSDWGEEVELNSPRTTHLAGALSPGEAWPFESV [CCDC9]”: the melting temperature in the data set on HeLa Kyoto [1] (cell cycle stage: G1/S) and in the data set with HeLa Kyoto [1] (cell cycle stage: mitosis) was 56.3 °C throughout. For the same sequence, the thermal stability score with HeLa Kyoto [2] (setting [5]) came to 3.28; in the data set with HeLa Kyoto [2] (cell cycle stage: mitosis), 2.57. Also, in the data set on HeLa Kyoto [3], the “solubility change mitosis (log2)” value amounted to 0.231. In the data set on HeLa Kyoto [4], the “solubility in G1/S (log2)” value is -0.239.

“MAATLLAARGAGPAPAWGPEAFTPDWESREVSTGTTIMAVQFDGGVVLGADSRTTTGSYIANRVTDKLTPIHDRIFCCRSGSAADTQAVADAVTYQLGFHSIELNEPPLVHTAASLFKEMCYRYREDLMAGIIIAGWDPQEGGQVYSVPMGGMMVRQSFAIGGSGSSYIYGYVDATYREGMTKEECLQFTANALALAMERDGSSGGVIRLAAIAESGVERQVLLGDQIPKFAVATLPPA [PSMB6]”: the melting temperature with HeLa Kyoto [1] (cell cycle stage: G1/S) stood at 59 °C; in the data set with HeLa Kyoto [1] (cell cycle stage: mitosis), 59.6 °C. For the same sequence, the thermal stability score with HeLa Kyoto [2] (setting [5]) is -1.97; in the data set with HeLa Kyoto [2] (cell cycle stage: mitosis), -2.64. Also, the “solubility change mitosis (log2)” value with HeLa Kyoto [3] is -0.103. In addition, the “solubility in G1/S (log2)” value with HeLa Kyoto [4] was 0.119.

For the sequence “MAAVATCGSVAASTGSAVATASKSNVTSFQRRGPRASVTNDSGPRLVSIAGTRPSVRNGQLLVSTGLPALDQLLGGGLAVGTVLLIEEDKYNIYSPLLFKYFLAEGIVNGHTLLVASAKEDPANILQELPAPLLDDKCKKEFDEDVYNHKTPESNIKMKIAWRYQLLPKMEIGPVSSSRFGHYYDASKRMPQELIEASNWHGFFLPEKISSTLKVEPCSLTPGYTKLLQFIQNIIYEEGFDGSNPQKKQRNILRIGIQNLGSPLWGDDICCAENGGNSHSLTKFLYVLRGLLRTSLSACIITMPTHLIQNKAIIARVTTLSDVVVGLESFIGSERETNPLYKDYHGLIHIRQIPRLNNLICDESDVKDLAFKLKRKLFTIERLHLPPDLSDTVSRSSKMDLAESAKRLGPGCGMMAGGKKHLDF [ELP4]”, the values for the melting temperature in the data set on HeLa Kyoto [1] (cell cycle stage: G1/S) and in the data set with HeLa Kyoto [1] (cell cycle stage: mitosis) were 53.8 °C and 55.4 °C, respectively. For the same sequence, the thermal stability score in the data set with HeLa Kyoto [2] (setting [5]) is 0.169; in the data set on HeLa Kyoto [2] (cell cycle stage: mitosis) it was -0.665. Further, in the data set on HeLa Kyoto [3], the “solubility change mitosis (log2)” value is -0.017. Moreover, the “solubility in G1/S (log2)” value in the data set with HeLa Kyoto [4] was 0.226.

Consider “MAAVKDSCGKGEMATGNGRRLHLGIPEAVFVEDVDSFMKQPGNETADTVLKKLDEQYQKYKFMELNLAQKKRRLKGQIPEIKQTLEILKYMQKKKESTNSMETRFLLADNLYCKASVPPTDKVCLWLGANVMLEYDIDEAQALLEKNLSTATKNLDSLEEDLDFLRDQFTTTEVNMARVYNWDVKRRNKDDSTKNKA [VBP1]”, for which the figures for the melting temperature in the data set on HeLa Kyoto [1] (cell cycle stage: G1/S) and in the data set with HeLa Kyoto [1] (cell cycle stage: mitosis) were 53.1 °C and 53.4 °C, respectively. Also, the results for the thermal stability score in the data set on HeLa Kyoto [2] (setting [5]) and with HeLa Kyoto [2] (cell cycle stage: mitosis) were -3.96 and -5.3, respectively. Moreover, in the data set with HeLa Kyoto [3], the “solubility change mitosis (log2)” value amounted to 0.513. Besides, the “solubility in G1/S (log2)” value with HeLa Kyoto [4] is 0.453.
